This note sets out measurements from patent publication US20170354706A1, “HYBRID PROTEINACEOUS MOLECULE CAPABLE OF INHIBITING AT LEAST ONE ANTIBIOTIC AND PHARMACEUTICAL COMPOSITION CONTAINING IT” (priority 2014, published 2017).

Series [1] can be described thus: pH-STAT beta-lactam hydrolysis assay, substrate Augmentin. The class given is biochemical. As to conditions: 37° C., pH=7.0. On the procedure:
(§1) The purified proteins were tested on different beta-lactams (amoxicillin (Apollo Scientific), Augmentin® (GlaxoSmithKline) and Ceftriaxone (Rocéphine®, Roche)). The assays are carried out at pH-STAT (Titrino 2.5, Metrohm) in a reaction volume of 25 ml at 37° C. and pH=7.0. The substrates are prepared at 4 g/l in a 0.3 mM Tris buffer, 150 mM NaCl. The enzyme hydrolysis of the beta-lactam nuclei releases an acid and induces a drop in the pH. The principle of the assay is to compensate for the acidification by the addition of 0.1 N sodium hydroxide so as to remain at pH=7.0. In these conditions, one unit corresponds to 1 μmole of sodium hydroxide added per minute, that is, one μmole of beta-lactam hydrolysed per minute. Table 3 below lists the specific activities measured for each protein on the three substrates (mean of 6 replicates).

In another series the test system is E. coli BL21(DE3)pLysS. As to the kind of experiment: MICs of beta-lactams on LB-agar for E. coli expression strains (Example 4). The class given is cell-based, Escherichia coli. Particulars: Table 10; BL21(DE3)pLysS + protein, IPTG induced; LB-agar, 37° C. overnight. As to the method:
The pre-cultures are then inoculated at 1/40th in 5 ml of LB+50 μg/ml Kanamycin medium and when the OD600 reaches a value of 0.6 (about 2 hours), the production of protein is induced by the addition of final IPTG 1 mM and continues for 1.5 hours at 37° C. with stirring at 200 rpm.
The dishes were incubated at 37° C. overnight and the results were recorded the following day. The MICs correspond to the lowest concentration of antibiotic at which the highest inoculum doesn't grow.

A short description of series [2]: pH-STAT beta-lactam hydrolysis assay, substrate amoxicillin. The class given is biochemical. Particulars: 37° C., pH=7.0. As to the method:
as §1

Series [3] in a line: pH-STAT beta-lactam hydrolysis assay, substrate ceftriaxone. Particulars: pH=7.0; for Specific activity, substrate Ceftriaxone: 37° C. The class given is biochemical. As to the method: as §1
The purified proteins were tested on different antibiotics: Ceftriaxone (RocéphineED, Roche) for the beta-lactams and kanamycin for the Aminoglycosides. The assays on ceftriaxone were carried out at pH-STAT (Titrino 2.5, Metrohm) in a reaction volume of 25 ml at 37° C. and pH=7.0. The substrates are prepared at 4 g/l in a 0.3 mM Tris buffer, 150 mM NaCl. The enzyme hydrolysis of the beta-lactam nuclei releases an acid and results in a drop in the pH. The principle of the assay is to compensate this acidification by the addition of 0.1 N sodium hydroxide so as to remain at pH=7.0. In these conditions, one unit corresponds to 1 μmol of sodium hydroxide added per minute, that is one μmol of beta-lactam hydrolyzed per minute.

Series [4] is described as follows: Acetyl-transferase indirect colorimetric assay (acetyl-CoA, DTNB). The class given is biochemical. As to conditions: Table 12; 500 μM Kanamycin, 500 μM AcetylCoA, 250 μM DTNB; 1 unit = one nanomole of TNB released per minute at 37° C.; n=6. On the procedure: The activity of acety-transferase is measured by an indirect colorimetric assay with acetyl-CoA (Sigma-Aldrich) as acetyl group donor, Kanamycin as acceptor and Elleman reagent (DTNB, Sigma-Aldrich) to titrate the CoEnzymeA reduced (—SH) molecules released during the enzyme reaction [Ref]. The reaction takes place on a microtitration plate with increasing quantities of purified enzymes, in a final volume of 200 μl and with concentrations of 500 μM Kanamycin, 500 μM AcetylCoA and 250 μM DTNB. In these experimental conditions, the ion TNB^2 absorbs at 412 nm with an ε(λ=412 nm) apparent 19 000 M^−1.well^−1 (well of a 96 well plate filled with 200 μl) and 1 unit corresponds to one nanomole of TNB^2 released per minute at 37° C.

The mark [5] stands for this setting: Table 3, proteins produced in Pichia pastoris, substrate 4 g/l, mean of 6 replicates.
[6] abbreviates: Table 5 (Example 2), proteins produced in Pichia pastoris.
The mark [7] stands for this setting: Table 7 (Example 3), proteins produced in Pichia pastoris.
[8] abbreviates: Table 9, proteins produced in Escherichia coli BL21(DE3) pLysS.

B1: CTX-M16: SEQ ID 2; class A β-lactamase (cefotaximase), Genbank AAK32961, 263 aa; constituent enzyme (protein, listed as Escherichia coli)
chain: QTSAVQQKLAALEKSSGGRLGVALIDTADNTQVLYRGDERFPMCSTSKVMAAAAVLKQSETQKQLLNQPVEIKPADLVNYNPIAEKHVNGTMTLAELSAAALQYSDNTAMNKLIAQLGGPGGVTAFARAIGDETFRLDRTEPTLNTAIPGDPRDTTTPRAMAQTLRQLTLGHALGETQRAQLVTWLKGNTTGAASIRAGLPTSWTAGDKTGSGGYGTTNDIAVIWPQGRAPLVLVTYFTQPQQNAESRRDVLASAARIIAEGL
As to B1, the “Specific activity, substrate Augmentin” value in series [1] (setting [5]), in series [1] (setting [6]), in series [1] (setting [7]) and in series [1] (setting [8]) was 0 U/mg each time. The “MIC of Amoxicillin for E. coli strain expressing the protein” value in the series with E. coli BL21(DE3)pLysS was more than 1024 µg/mL. Besides, in the series with E. coli BL21(DE3)pLysS, the “MIC of Augmentin for E. coli strain expressing the protein” value worked out at 4 µg/mL. Also, in the series on E. coli BL21(DE3)pLysS, the “MIC of Rocephine for E. coli strain expressing the protein” value was found to be 512 µg/mL. Besides, the “Specific activity, substrate Amoxicillin” value in series [2] (Table 3, proteins produced in Pichia pastoris, substrate 4 g/l, 1 U = 1 μmole beta-lactam hydrolysed per minute, mean of 6 replicates) was determined as 31 ± 2 U/mg; in series [2] (setting [6]), 31 ± 2 U/mg; in series [2] (setting [7]) it was 31 ± 2 U/mg; in series [2] (Table 9, proteins produced in Escherichia coli BL21(DE3) pLysS (periplasm, non-glycosylated)) it was 21 ± 1 U/mg. Besides, the “Specific activity, substrate Ceftriaxone” value in series [3] (setting [5]) came out at 306 ± 44 U/mg; in series [3] (setting [6]), 306 ± 44 U/mg; in series [3] (setting [7]), 306 ± 44 U/mg; in series [3] (setting [8]), 158 ± 14 U/mg. In addition, the “Specific activity, substrate Cetriaxone” value in series [3] (Table 12, pH-STAT 37° C., AAC and fusion from E. coli, CTX-M16 from P. pastoris, n=6) is reported as 336 ± 5 U/mg. Also, the “Specific activity, substrate Kanamycin” value in series [4] amounted to 0 U/mg.
